Test results published in patent publication US20180094248A1 (ARIZONA BOARD OF REGENTS ON BEHALF OF ARIZONA STATE …, published 2018).

T1: Receptor Interacting Protein Kinase-1 (RIPK1) (human, UniProt Q13546 1-671)
T1 construct: Endogenous protein in human AD and CTL brain extracts (TBS/Triton-X100) and in human cell lysates; also called RIP1
T1 sequence (looked up): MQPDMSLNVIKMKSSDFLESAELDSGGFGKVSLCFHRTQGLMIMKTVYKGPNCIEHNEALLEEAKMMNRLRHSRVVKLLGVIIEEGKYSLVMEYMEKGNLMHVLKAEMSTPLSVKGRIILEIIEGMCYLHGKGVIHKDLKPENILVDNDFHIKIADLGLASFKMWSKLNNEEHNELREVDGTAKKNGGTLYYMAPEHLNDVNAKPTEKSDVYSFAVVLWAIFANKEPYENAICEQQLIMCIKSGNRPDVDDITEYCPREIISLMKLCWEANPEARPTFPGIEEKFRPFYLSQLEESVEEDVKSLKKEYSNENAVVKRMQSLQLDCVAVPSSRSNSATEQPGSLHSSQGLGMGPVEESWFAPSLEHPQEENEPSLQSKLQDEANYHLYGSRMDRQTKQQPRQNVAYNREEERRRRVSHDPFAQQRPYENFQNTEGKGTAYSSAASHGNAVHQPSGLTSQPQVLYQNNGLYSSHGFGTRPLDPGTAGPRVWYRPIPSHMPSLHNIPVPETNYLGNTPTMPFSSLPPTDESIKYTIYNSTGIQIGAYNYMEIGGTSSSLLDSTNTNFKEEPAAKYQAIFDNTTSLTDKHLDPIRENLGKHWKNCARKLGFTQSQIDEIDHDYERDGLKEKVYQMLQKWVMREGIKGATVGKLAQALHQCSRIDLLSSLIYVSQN

B1: Receptor Interacting Protein Kinase-3 (RIPK3) (enzyme, human, UniProt Q9Y572 1-518, looked up)
chain: MSCVKLWPSGAPAPLVSIEELENQELVGKGGFGTVFRAQHRKWGYDVAVKIVNSKAISREVKAMASLDNEFVLRLEGVIEKVNWDQDPKPALVTKFMENGSLSGLLQSQCPRPWPLLCRLLKEVVLGMFYLHDQNPVLLHRDLKPSNVLLDPELHVKLADFGLSTFQGGSQSGTGSGEPGGTLGYLAPELFVNVNRKASTASDVYSFGILMWAVLAGREVELPTEPSLVYEAVCNRQNRPSLAELPQAGPETPGLEGLKELMQLCWSSEPKDRPSFQECLPKTDEVFQMVENNMNAAVSTVKDFLSQLRSSNRRFSIPESGQGGTEMDGFRRTIENQHSRNDVMVSEWLNKLNLEEPPSSVPKKCPSLTKRSRAQEEQVPQAWTAGTSSDSMAQPPQTPETSTFRNQMPSPTSTGTPSPGPRGNQGAERQGMNWSCRTPEPNPVTGRPLVNIYNCSGVQVGDNNYLTMQQTTALPTWGLAPSGKGRGLQHPPPVGSQEGPKDPEAWSRPQGWYNHSGK
notes: Endogenous protein in human brain sections

Key:
[1] = molecular target: T1, Receptor Interacting Protein Kinase-1 …; test: confocal co-localization in co-labeled human brain sections
Experimental: (§1) The tissue was then washed in water and let dry overnight. The next day the slides were cleared in xylene and coverslipped with DPX mounting solution (Sigma-Aldrich). The immunohistochemistry on the brain sections from APP/PS1 was conducted following a similar protocol as we previously detailed 49. In this case, sections were stained with an anti-A(342 specific antibody (1:200; Millipore, catalog number AB5078P) and with a neuronal marker NeuN (1:200, Millipore, catalog number MAB377), Iba1 (Wako), GFAP (Cell Signaling) and GFP (1:200, Thermo Fisher Scientific, catalog number A-11122).
(§2) Confocal microscopy and image analysis: All images were acquired at a resolution size of x=1024, y=1024, and z=1, using a 63× oil immersion objective and zoom of 1.5 using the Leica DM 2500 confocal microscope. Image fields within the x-y plane of the tissue section were randomly selected. For each image acquired, channels were split to allow separate pixel quantification in both the 561 nm and 635 nm channels. To quantify total protein in each image field, channels were split and the integrated signal density of each channel was quantified using ImageJ software. Human brain tissue sections immunostained for RIPK1, RIPK3, MLKL, and pMLKL were analyzed to measure absolute protein levels, as well as co-localization between RIPK1 and RIPK3, RIPK3 and MLKL, and RIPK1 and MLKL. […]

[2] = molecular target: B1; test: as above
Experimental: as §1, §2

Row | binding result [1] | binding result [2] | Binder
1 | binds | – | B1
2 | – | binds | Mixed Lineage Kinase Domain-Like (MLKL) (other, Endogenous protein in human brain extracts and HAP1 cells) MENLKHIITLGQVIHKRCEEMKYCKKQCRRLGHRVLGLIKPLEMLQDQGKRSVPSEKLTTAMNRFKAALEEANGEIEKFSNRSNICRFLTASQDKILFKDVNRKLSDVWKELSLLLQVEQRMPVSPISQGASWAQEDQQDADEDRRAFQMLRRDNEKIEASLRRLEINMKEIKETLRQYLPPKCMQEIPQEQIKEIKKEQLSGSPWILLRENEVSTLYKGEYHRAPVAIKVFKKLQAGSIAIVRQTFNKEIKTMKKFESPNILRIFGICIDETVTPPQFSIVMEYCELGTLRELLDREKDLTLGKRMVLVLGAARGLYRLHHSEAPELHGKIRSSNFLVTQGYQVKLAGFELRKTQTSMSLGTTREKTDRVKSTAYLSPQELEDVFYQYDVKSEIYSFGIVLWEIATGDIPFQGCNSEKIRKLVAVKRQQEPLGEDCPSELREIIDECRAHDPSVRPSVDEILKKLSTFSK
